Experiment: yeast display, Sf9 membrane polyspecificity reagent, FACS + sequencing; frameworks hold sequencing errors
How it was run: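 Genes from sorted yeast were amplified by colony PCR, read by MiSeq 2 × 250 sequencing and filtered on CDR length. These cells carried a synthetic nanobody library in Saccharomyces cerevisiae BJ5465 and were sorted by FACS into low and high (top ~1%) gates on anti-HA and streptavidin fluorescence. Polyreactivity is labelled according to the gate of origin.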

Sequence | polyreactivity (PSR sort gate)
QVQHVESGGGLVQAGGSLRLSSAASGSIFTFYAMGWSRQAPGKEMELVADITGRGSRTYYADSVTGRFTISRDNAKNTVYLKMNSLKPEDTAVYYCAAGHDRYYQSEYGYWGQGTQVTVSS | high polyreactivity
QVQHVESGGGLVQAGGSLRLTCAASGRIYASNSKGWYRQETGKERELFATSRVGGGSTYYADSVKGRFTISRDNAKNTVYLQRNSLKQEDTAVYYWAASFRDDFPQRLDFWGQGTQVTVSS | low polyreactivity
QVQHVESGGGLVQAGGSLRLTCAASGSTSPTNVMGWYRQAPGKERELVAAISYSGGRTYYADSVKGRFTISRDNAKKTVYLQMNSLKPEDTAVYYCAARSLKRKYESWGQGTQVTVSS | high polyreactivity
QVQHVESGGGLVQAGGSLSLSCAASGFIFSAYAMGWYRRAAGKERKLVDAITRSGGITDYADSVKGRFTISRDIAKNTVYLQMNSLKPEDTADYYCAALRVQQVKSYYYWGQGTQVTVSW | high polyreactivity
QVQHVESGGGLVQAGGSRRLTCAASGYTFYKYAMGWYRQAPGKERELVAAISSSGGSTYYADSVKGRFTISRDNAKNTGYLHMNSLKPVDTAVYYCAAFVYSNDYDYWGQGTQVTVSS | high polyreactivity
QVQHVESGGGLVQAGRSLRLICAASGRNSKGYAMAWDRQAPGKERELVAAYADSVKGRFTIARDNAKNTVYLQMNSLKPEDTAVYYCNADYDQVSRVGYVYWAYYYWGQGTQVTVSS | low polyreactivity
QVQHVESGGGLVQAGRSLRLSCAASGFTIVQYAMGWYRQAPGKERELVARISPIGGSTYYADSVKGRFTISRDNAKNTVYLQMNSLKPEDTAVYYCNALRGPVKYYYWGQGTQVTVSS | low polyreactivity
QVQHVESGGGLVQAGRSLRLSCAASGLIYPYVMGWYRQAPGKERELVAAISRSGGRTYYADSVKGRFTISRDNAKNTVYLQMNSLKPEDTAVYYCAAKVDVTGYFDYWGQGTQVTVSS | high polyreactivity
QVQHVESGGGLVQAGVSLRLSCAASGFTFGSNAMGRYRPAPGKERELVAAINYSGVRTYYADSVKGRFTISRDNAKNTVYLQMNSLKPEDTAVYYCAKQRSKPNSFDYWGQGTQVTVSS | high polyreactivity
QVQHVESGGGLVQARGSLRLSCAASGSTIKHYGMGWYRHAPGKERELVAAITSGGRTYYADSVKGRFTISRDNAKNTVYLQMNSLKQDDSAGYYCAALRVQQVKSYYYWGQGTQVTVSS | high polyreactivity
QVQHVESGGGLVQEGGSLRVSCAASGSIFGTNDMGWYRQAPGKERELVAAISSSGASTYYADSVKGRFTISRDNAKNTVYLQMNSLKPEDTAVYYCARGYTYQYSSFYYWGQGTQVTVSS | low polyreactivity
QVQHVESGRGLVQAGGSLRLSCAASGFIFRLYAMGWYRQAPGKERELVAAISRGGSTTYADSVKGRFTISRDNAKNTVYLQMYSLKPEDTAVYYCATEGDLVAYLYDYWGQGTQVTVSS | low polyreactivity
QVQHVESGVGLVQAGGSLRLSSAASGRTFSDNAMGWYRQAPGNERELVAAISRSGGRTYYADSVKGRFTISRDNAKNTVYLQMNSLKPEDTAVYYCAAAPSVSGTRLYEYWGQGTQVTVSS | high polyreactivity
QVQHVESRGGLVQAGGSLRLICAASGFILYYYAMGWYRQAPGKVREMVASISRRGGSTYYADSVKGRFTISRDNAKNTVYLQMNSLKPEDTAVYYCAATETTSRRFGYDYWGQGTQVTVSS | high polyreactivity
QVQHVESRGGLVQAGGSLRLICAASGFTFSSYAMGWYRQAPGKERELVASISWRGGIPYYADSVKGRFTISRDNAKNTVDLQMISLKPEDTAVYYCAAVPSYHSTSPFYYWGQGTQVTVSS | high polyreactivity
QVQHVESRGGLVQAGGSLRLSCAASGITLPKYAMGCYRQAPGKERELAAAISRRGGITYYADSVKGRFTISRDNAKNSVYLQMNSQKPEDTAVYYCAADRTDTRGFDYWGQGTQVTVSS | high polyreactivity
QVQHVESRGGLVQARGSLRLSCAASGRIFSPYAMGWYRQAPGKERELVAAITWSGGSTYYADSVKGRFTISRDNAMNTVYLQMNSLKQEDTAVYYCAADFYRRYYAWEYYYWGQGTQVTVSS | high polyreactivity
QVQHVESVGCLVQAAGSLPLSCAASGSTFSSYAMGWYRQAPGKERELVAAISTSGGSTYYADSVKGRFTISRDNAKNTVYLQMNSLKQEDTAVYYCYAGPSYYPFFWPDFEYWVQGTQVTVSS | high polyreactivity
QVQHVESVGGLVQAGGSLPLSGASSGFIFRKNAMGWYRQATGKEREFVAAISRRGGCTYYADSVKGRFTISRDNAKNTVYLQMNSLKPEDTAVYYCNAELYDVGSHEYDYWVQGTQVTVSS | high polyreactivity
QVQHVESVGGLVQAGGSLRLSCAASGFTFYGYAMGWYRHATGKERELVPAISQSGGSTTYADSVKGRFTISRDKAKNTVYVQMNSLKPEDTAVYYCAARYPYYWWRHVYGDVEYDFWGQGTQGTVSS | high polyreactivity
QVQHVESVGGLVQAGGSLRLSCAASGLIFLYNAMGWYRQAPGKVRELVAAITSSGGSTYYADSVKGRLTISRDYAKNTVYLQMNSLKPEDTAVYYCANRYQSYYYSHWGYRYYWGQGTQVTVSS | high polyreactivity
QVQHVESVGGLVQAGGSLRLSCAASGRTFGCYTMGWYRHATGTERELVAGISSSGGSTYYADSVKGRFTISRDNAKNTVYLQMNSLKPEDTAVYYCARETYPHGLYYRPYDYWGQGTQVTVSS | low polyreactivity

Sequence | polyreactivity (PSR sort gate)
QVQHVESVGGLVQARGSLRLSCAASGSIFDLYAMGWYRQAPGKERELVAGISYSGGSTYYADSVKGRFTISRDNAKNTVYLQMNSLKPEETAVYYCATAYYYHGGYYYPYDDYWGQGTQVTVSS | low polyreactivity
QVQHVESVGRLVQAGGSLLLSCAASGSTFWIYAMGWKRQAPVKERELVAAISWRGGRTYYADSVKGRFTISRDNAKNTVYLQMYSLKPEDTGVYYCNAQKRDVSMGYWGLGTQVTVSS | high polyreactivity
QVQHVESVRGLVQAGGSLRLSCDASGIIFYSYAMGWYRQAPGKERELVARISTRGGSTYYADSVKGRFTISRDNAKNTVYLQMNSLKPEDTAVYYCAARYSRYIRFPYDYWGQGTQVTVSS | high polyreactivity
QVQHVETGGGLVQAGGSLRLSCAASGFIFAEYAMGWYRQAPGKETEEVAAITSGGSTSYADSVKGRFTISRDNAKNTVYLQMNSLKPEDTAVYYCAATWYYLYNVWKHWYEYGYWGQGTQVTVSS | low polyreactivity
QVQHVETGGGLVQAGGSLRLSCAASGIFGYNAMGGYRQAPAKERELVAGITKSGARTYYADSVKGRFTISRDNAKNTVYLQMNSLKPEDTAVYYCKAVGKRFYNDDYWGQGTQVTVSS | high polyreactivity
QVQHVQSGGGLVQAGGRHRLSCAASGSTIRYYAMGWYRQAPGTERELVAAISGSGGRTYYADSVKGRFTISRDNAKNTGYLQMNSLKPEDTAVYYCYTRGRRTDNDYWGQGTQLTVSS | high polyreactivity
QVQHVQSGGGLVQAGGSLRLSCAASGRTNPFYAMGWYRQAPGKERELVAAISSSAGRTYYADSVKGRFTISRDNAKNTFYFEMNSLKPEDTAVYYCAARLYGRYRYDYWGQGTQVTVSS | low polyreactivity
QVQIEESGGGLVQERGSLRLSCAAYGRIFDLYAMGWNRQAPGKERELVATISGSGGSTYYADSVKGRFTISRDTAKNTVYLQMNSLKPEDTAVYNCAAVSVSSWYDYWGQGTQVTVSS | low polyreactivity
QVQIVDSGGGLVQAGGRLRLTCAASGSTFYVYTMGWSRQAPGKESELFDRISSGGSTKYADSVKGRFTISRVNANNTVYLQMNILKPEDTAVYYCNADGLYLFGISYGKFLKYGHWGHGTQVTVSS | low polyreactivity
QVQIVDSGGGLVQAGGSLRLSCAASGNIFAWYAMGWYTQAPGQVRELVAAINWSRGSTYYADSVKGRFTISRDNAKNTVYLQMNSLKPEDTAVYYCNAVFQDRTDDYDYWGQGTQVTLSS | low polyreactivity
QVQIVDSGGGVVQAGGILRLSSAASGYTFGSYDMGWYRQEPGKERELVAAISGGGSTNYADSVKGRFTISRDNAKNTVYLQMNCLKPEDTAVYYCAAYPYLYPLRFEEYDHWGQGTQVTVSS | low polyreactivity
QVQIVDSGVGLVQAGGSLRLSCAASGSTFLKNAMGWYRQAPGKERELVAAISYSTTPTYYADSVKGRFTFSRDNAKNTVYLQMNSLKPEDNAVYYCNIASYWGSGFDFWGLGTQVTVSS | low polyreactivity
QVQIVESGAGIVQAGGSLRLSCAASGFIFDIYAMGWYRQAPGKERELVASITWDDGSTYYADSVKGRFTISRDNAKNTVYLQINSLKPEDTAVYYCAADFEAGGYSLDYWGQGTQVTVSS | low polyreactivity
QVQIVESGAGLVQAGGSLRISCAPSGLTFGYYAMGWYRQAPGKERELVAAISSSGVNTYYADSVKGRFTISRDNAKNTVYLQMNSLKPEDTAVYYCNTVPKPWYSWKYAYDYWGHGTQVTVSS | high polyreactivity
QVQIVESGAGLVQAGGSLSLSCDASGFIFVWYAMGWYRQAPGKERELVAAISWTGGSTYYADSVKGRFTISRDNAKNTVYLQINSLKPEDTAVYYCAATYEFYPEELDYWGQGTQVTVSS | low polyreactivity
QVQIVESGGGIVQAGGSLRLSSAASGSTFSFYVMGWYRHAPGKEREWVAAISWSSVGTYYADSVKGRFTISRDNAKNTVYLQMNSLKPDDTAVYYCAAERYRRVAKHGYWGQGTQVTVSS | high polyreactivity
QVQIVESGGGLVQAAGSLRLSCAASGSTFQTYAMGWYRQAPGKERELVAAITSGGSTNYADSVKGRFTISRDNAKNTVYLQMNSLKPEDTAVSYCAVRQIYQTSDHRLQYDYWGQGTQVTVSS | low polyreactivity
QVQIVESGGGLVQAGGRLRLSCAYSGLIISWYAMGCDIQSPGKERELVAAISGSVGSTYYADPVKGRFTISRDNAKNTVYLQMNSLKPEDTAVYYCAARSKDGGGPMYYWGQGTQVTVSS | high polyreactivity
QVQIVESGGGLVQAGGSHRISCAASGLIFQSNAMGWYRQAPGKESELVAAISTAGSTNYADSVKGRFTISRDNAKNTFYFQMNSLIPQDTAVYYFAAQVSTPYRYPRQMLYDSWGQGTQVTVSS | low polyreactivity
QVQIVESGGGLVQAGGSHRLSCAASGSTFDAYAMGWYRQEPGKEREMVAAISTRGGRTYYADSVKGRFTISRDNAKNTVYLQMNSLKPEDTAVYYCNAVVARVNVRGTPAFDYWGQGTQVTVSS | high polyreactivity
QVQIVESGGGLVQAGGSLPLSSAPSGSIFAPYAMGWYRQAPGKERELVAAINISGGTYYADSVKGRFTISRDNAKNTLYLQMNSLKPEDTAVYYCAARYLYGYYGFDYWGQGTQVTVSS | high polyreactivity
